Test results reported in publication PMC7293249 (Nature Communications, 2020).

T1: human activated protein C (Homo sapiens)
T1 chain 1: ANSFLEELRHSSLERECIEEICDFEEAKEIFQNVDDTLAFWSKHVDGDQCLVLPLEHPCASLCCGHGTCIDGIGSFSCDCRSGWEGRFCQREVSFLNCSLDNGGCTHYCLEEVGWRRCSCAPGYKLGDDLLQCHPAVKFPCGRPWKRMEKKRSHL
T1 chain 2: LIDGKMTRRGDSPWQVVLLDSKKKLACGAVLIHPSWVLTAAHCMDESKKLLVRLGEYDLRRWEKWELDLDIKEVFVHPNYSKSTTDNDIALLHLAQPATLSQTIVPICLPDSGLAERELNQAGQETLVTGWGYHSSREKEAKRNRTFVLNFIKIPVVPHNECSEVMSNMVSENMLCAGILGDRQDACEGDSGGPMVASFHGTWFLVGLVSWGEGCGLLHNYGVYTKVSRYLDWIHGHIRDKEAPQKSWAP

B1: type I anti-APC mAb TPP-2312 (BAY1316786) (antibody, V domains shown)
VH: EVQLLESGGGLVQPGGSLRLSCAASGFTFSSYWMSWVRQAPGKGLEWVSGVSWNGARTHYADSVKGRFTISRDNSKNTLYLQMNSLRAEDTAVYYCALTGRSGWMRFPNWFDPWGQGTLVTVSS
VL: QSVLTQPPSVSGAPGQRVTISCTGSSSNIGAAYDVHWYQQLPGTAPKLLIYGNNKRPSGVPDRFSGSKSGTSASLAITGLQAEDEADYYCQSYDSSLSGSVFGGGTKLTVL
notes: variable region as the heavy chain of C25K23 with S56A in CDR2, joined to the hIgG2 constant region (CH1-CH2-CH3); as the light chain of C25K23 with K55R in CDR2; hIgG2; Candidate C25K23 was germlined and optimized to become TPP-2312; also called type I mAb; source: HEK293-6E, transiently co-transfected (pTT5), purified (protein A, SEC)
B2: C25K23Fab (type I Fab, TTP-2781) (Fab, V domains shown)
VH: EVQLLESGGGLVQPGGSLRLSCAASGFTFSSYWMSWVRQAPGKGLEWVSGVSWNGSRTHYADSVKGRFTISRDNSKNTLYLQMNSLRAEDTAVYYCALTGRSGWMRFPNWFDPWGQGTLVTVTS
VL: QSVLTQPPSASGTPGQRVTISCTGSSSNIGAAYDVHWYQQLPGTAPKLLIYGNNKRPSGVPDRFSGSKSGTSASLAISGLRSEDEADYYCQSYDSSLSGSVFGGGTKLTVL
notes: Parent of TPP-2312; also called type I (C25K23) Fab; source: E. coli, purified (Protein A chromatography)
B3: type II anti-APC mAb TPP-4885 (BAY1896502) (antibody, V domains shown)
VH: EVQLVESGGGLVQPGGSLRLSCAASGFTFSNYYLNWVRQAPGKGLEWVGDIRLKSNNYEKHYAESVKGRFTISRDDSKNSLYLQMNSLKTEDTAVYYCAREGDYFDYWGQGTLVTVSS
VL: DIVLTQSPASLAVSPGQRATITCKASESVDSFGATFMHWYQQKPGQPPKLLIYLASNLESGVPARFSGSGSGTDFTLTINPVEADDTANYYCQQNNEDPYTFGQGTKLEIK
notes: humanized/optimized from mouse HAPC1573; variable region from the Fab joined to the hIgG2 constant region (CH1-CH2-CH3); humanized/optimized from mouse HAPC1573 (kappa); hIgG2; Derived from HAPC1573 (mIgG1/k) by humanization and optimization; also called type II mAb; BAY 1896052; source: HEK293-6E, transiently co-transfected (pTT5), purified (protein A, SEC)
B4: hu1573Fab (type II Fab, TPP-5040) (Fab, V domains shown)
VH: EVQLVESGGGLVQPGGSLRLSCAASGFTFSNYYLNWVRQAPGKGLEWVGDIRLKSNNYEKHYAESVKGRFTISRDDSKNSLYLQMNSLKTEDTAVYYCAREGDYFDYWGQGTLVTVSS
VL: DIVLTQSPASLAVSPGQRATITCKASESVDSFGATFMHWYQQKPGQPPKLLIYLASNLESGVPARFSGSGSGTDFTLTINPVEADDTANYYCQQNNEDPYTFGQGTKLEIK
notes: Humanized Fab of mouse HAPC1573; also called h1573Fab; type II (h1573) Fab; source: QMCF cells (CHO-based), transiently transfected (pTT5), purified from conditioned medium (KappaSelect, SEC)

Tests used:
[1] = target: T2, rabbit activated protein C (Oryctolagus cuniculus, UniProt Q28661); assay: ELISA; data not shown; species cross-reactivity; species' APC or PC coated directly on Maxisorp plates at 100 ng/well in PBS/Ca2+; antibodies titrated; details: both partners purified
T2 construct: also called rabbit APC

[2] = target: T3, dog activated protein C (Canis lupus familiaris, UniProt Q28278); assay: as above; details: both partners purified
T3 construct: also called dog APC

[3] = target: T4, monkey activated protein C (Macaca sp. (monkey plasma, species not …, UniProt A0A1D5QSH6)); assay: as above; details: both partners purified
T4 construct: also called monkey APC

[4] = target: human FVIIa (Homo sapiens, UniProt P08709); assay: ELISA; data not shown; human FIIa, FVIIa, FIXa, FXa, FXIa, FXIIa coated directly on Maxisorp plates at 5–10 µg/mL; anti-APC antibodies at 20 nM; details: both partners purified
[5] = target: human FXIIa (Homo sapiens, UniProt P00748); assay: as above; details: both partners purified
[6] = target: human FXa (Homo sapiens, UniProt P00742); assay: as above; details: both partners purified
[7] = target: human FXIa (Homo sapiens, UniProt P03951); assay: as above; details: both partners purified
[8] = target: T5, human FIIa (Homo sapiens, UniProt P00734); assay: as above; details: both partners purified
T5 construct: human FIIa (thrombin), light chain; human FIIa (thrombin), heavy (catalytic) chain; also called thrombin

[9] = target: human FIXa (Homo sapiens, UniProt P00740); assay: as above; details: both partners purified
[10] = target: T4, monkey activated protein C; assay: cell-based or functional assay
[11] = target: T6, plasma-derived hAPC-Gla-domainless (APC-GD) (Homo sapiens, UniProt P04070); assay: ELISA; APC-binding ELISA of the purified Fabs on human APC and Gla-domainless APC; format not told; details: both partners purified
T6 construct: also called APC (in the crystal structures); source: bought: plasma-derived, Enzyme Research Laboratories

[12] = target: T7, Phe–Pro–Arg–chloromethylketone active-site-blocked APC (PPACK-hAPC) (Homo sapiens, UniProt P04070, active site blocked by Phe–Pro–Arg–chloromethylketone (PPACK)); assay: ELISA; PPACK-hAPC or hAPC coated onto a MaxiSorp plate at 100 ng per well overnight; IgG or Fab at concentrations starting at 20 nM; details: both partners purified
T7 construct: also called PPACK-APC

[13] = target: T8, monkey protein C (zymogen) (Macaca sp. (monkey plasma, species not …, UniProt A0A1D5QSH6)); assay: ELISA; data not shown; species cross-reactivity; species' APC or PC coated directly on Maxisorp plates at 100 ng/well in PBS/Ca2+; antibodies titrated; details: both partners purified
T8 construct: monkey protein C zymogen, light chain; also called monkey PC

[14] = target: T1, human activated protein C; assay: cell-based or functional assay
[15] = target: T1, human activated protein C; assay: ELISA; hAPC or hPC coated directly on Maxisorp plates at 100 ng/well in PBS/Ca2+; antibodies titrated, 1 h at RT; detection with HRP anti-human Fc; details: both partners purified
[16] = target: T9, human protein C (zymogen) (Homo sapiens, UniProt P04070); assay: SPR; Biacore T200, 25 °C, HBS-P+ (10 mM HEPES pH 7.4, 150 mM NaCl, 0.05% P20) with 1 mg/mL BSA; mAbs captured by immobilised mouse anti-human Fc antibody on CM5; hAPC injected at 1.56-200 nM, hPC at 1.56-1000 nM; 1:1 Langmuir fit; details: both partners purified
T9 construct: human protein C zymogen, light chain; also called hPC; PC; source: bought: plasma-derived, Enzyme Research Laboratories

[17] = target: T1, human activated protein C; assay: as above; details: both partners purified

Row | Binder | EC50 [3] | binding result [4] | binding result [5] | binding result [6] | binding result [7] | binding result [8] | binding result [9] | Protac-aPTT in FVIII-antibody-induced hemophilia A monkey plasma, inhibition of APC anticoagulant activity, IC50 [10] | binding result [12] | also measured
1 | B1 | ~1 nM | no binding (tested: 20 nM) | no binding (tested: 20 nM) | no binding (tested: 20 nM) | no binding (tested: 20 nM) | no binding (tested: 20 nM) | no binding (tested: 20 nM) | 9.3 nM | – | EC50 [1]: ~1 nM; EC50 [2]: ~1 nM
2 | B2 | – | – | – | – | – | – | – | – | – | EC50 [11]: 2 to 4 nM
3 | B3 | ~1 nM | no binding (tested: 20 nM) | no binding (tested: 20 nM) | no binding (tested: 20 nM) | no binding (tested: 20 nM) | no binding (tested: 20 nM) | no binding (tested: 20 nM) | 19.3 nM | binds | binding result [1]: no binding; binding result [13]: no binding; binding result [2]: no binding; Protac-aPTT in FVIII-antibody-treated normal human plasma, IC50 [14]: 12 nM; Protac-aPTT in hemophilia A plasma, inhibition of APC activity, IC50 [14]: 11.6 nM; Protac-aPTT in normal human plasma, inhibition of APC anticoagulant activity, IC50 [14]: ~7 nM; EC50 [15]: 0.8 nM; binding result [16]: no binding (tested: 1000 nM); Kd [17]: 10 nM
4 | B4 | – | – | – | – | – | – | – | – | binds | –
